The values that follow are results of earlier work, collected in PMC3046808.

One may read the Kd as the constant that tells how readily two partners part at equilibrium.

This data set deals with Gag (Human immunodeficiency virus 1) (UniProt O93182).

Gag, sequence (O93182 2-500): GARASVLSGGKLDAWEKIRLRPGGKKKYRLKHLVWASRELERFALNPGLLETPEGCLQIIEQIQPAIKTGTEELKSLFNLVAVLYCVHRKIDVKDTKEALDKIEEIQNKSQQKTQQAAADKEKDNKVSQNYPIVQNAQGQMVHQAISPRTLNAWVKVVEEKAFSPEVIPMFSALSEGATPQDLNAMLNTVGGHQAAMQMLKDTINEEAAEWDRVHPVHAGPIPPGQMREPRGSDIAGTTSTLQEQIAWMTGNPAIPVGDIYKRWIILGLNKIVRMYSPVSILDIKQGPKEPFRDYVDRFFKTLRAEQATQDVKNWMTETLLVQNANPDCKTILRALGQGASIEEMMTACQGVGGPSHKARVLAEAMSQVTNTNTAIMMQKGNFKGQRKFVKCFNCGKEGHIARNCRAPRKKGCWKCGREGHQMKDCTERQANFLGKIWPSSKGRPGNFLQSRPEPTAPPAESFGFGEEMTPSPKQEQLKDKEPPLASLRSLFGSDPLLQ

Take Gag (from UniProt O93182): the Kd is 3.9 µM.
